The data set can be described thus: self-splicing fitness, log relative to wild type (ln ratio); higher = more splicing; Tetrahymena group I intron in knt gene, E. coli kanamycin selection, DiMSum; sequences stand for … in CUCUCU…GGAGGGAAAAGUUAUCAGGCAUGCACCUGGUAGCUAGUCUUUAAACCAAUAGAUUGCAUCGGUUUAAAAGGCAAGACCGUCAAAUUGCGGGAAAGGGGUCAACAGCCGUUCAGUACCAAGUCUCAGGGGAAACUUUGAGAUGGCCUUGCAAAGGGUAUGGUAAUAAGCUGACGGACAUGGUCCUAACCACGCAGCCAAGUCCUAAGUCAACAGAUCUUCUGUUGAUAUGGAUGCAGUUCACAGACUAAAUGUCGGUCGGGGAAGAUGUAUUCUUCUCAUAAGAUAUAGUCGGACCUCUCCUUAAUGGGAGCUAGCGGAUGAAGUGAUGCAACACUGGAGCCGCUGGGAACUAAUUUGUAUGCGAAAGUAUAUUGAUUAGUUUUGGAGUACUCGUGGUCG
In short, it runs like this: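 A randomised library covering all eight P1ex-region intron nucleotides was built with the intron in the knt kanamycin-resistance gene on pET-22b(+) and held in E. coli BL21(DE3). Cells were grown overnight at 37°C or 30°C on LB agar, with or without 25 μg/mL kanamycin, plus 100 μg/mL carbenicillin, 50 μM IPTG and 0.2% rhamnose, and pooled colonies were amplicon-sequenced on an Illumina HiSeq 2500. DiMSum fitness is the error-weighted combination of wild-type-normalised replicate fold changes, kanamycin versus none.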

± gives the uncertainty stated by the source.

Here are results for 75 sequences from the supplement of paper PMC7877785.

Take UUCAAGCAAUAUUACGGCGU: the “self-splicing fitness (ln)” value runs as follows: (30 °C) -1.61 ± 0.094; (37 °C) -0.465 ± 0.12. Consider UUCAAGCAAUAUUACGUCAA, for which the “self-splicing fitness (ln)” value is, setting by setting: (30 °C) -0.772 ± 0.092; (37 °C) -0.645 ± 0.1.

UUCAAGCAAUAUUACGUCCA: the “self-splicing fitness (ln)” value (30 °C) is -1.12 ± 0.11 and the “self-splicing fitness (ln)” value (37 °C) was -0.803 ± 0.098.

On to UUCAAGCAAUAUUACGUGAU, for which the “self-splicing fitness (ln)” value runs as follows: (30 °C) -1.8 ± 0.096; (37 °C) -0.468 ± 0.11.

As to UUCAAGCAAUAUUACGUUCG, the “self-splicing fitness (ln)” value is -1.96 ± 0.12 (30 °C) and -1.44 ± 0.12 (37 °C). On the same counts, the results for UUCCAGCAAUAUUACGAAAU are -2.78 ± 0.36 and -1.58 ± 0.32. The corresponding values for UUCCAGCAAUAUUACGACAC are -3.32 ± 0.19 and -2.18 ± 0.19. Regarding UUCCAGCAAUAUUACGACGC, the “self-splicing fitness (ln)” value was -3.25 ± 0.24 (30 °C) and -3.03 ± 0.17 (37 °C). In the case of UUCCAGCAAUAUUACGACUA, the “self-splicing fitness (ln)” value was -0.435 ± 0.097 (30 °C) and -0.117 ± 0.085 (37 °C). Take UUCCAGCAAUAUUACGAGAC: the “self-splicing fitness (ln)” value (30 °C) is -2.82 ± 0.27 and the “self-splicing fitness (ln)” value (37 °C) is -1.79 ± 0.32.

Take UUCCAGCAAUAUUACGAGUC: the “self-splicing fitness (ln)” value by setting is: (30 °C) -2.56 ± 0.13; (37 °C) -1.13 ± 0.15. For the sequence UUCCAGCAAUAUUACGAUUC, the “self-splicing fitness (ln)” value (30 °C) is -1.5 ± 0.17 and the “self-splicing fitness (ln)” value (37 °C) was -2.04 ± 0.27. For the sequence UUCCAGCAAUAUUACGCACA, the “self-splicing fitness (ln)” value was -0.0937 ± 0.12 (30 °C) and -0.0969 ± 0.13 (37 °C). On to UUCCAGCAAUAUUACGCGCA, for which the “self-splicing fitness (ln)” value reads like this: (30 °C) -0.0641 ± 0.12; (37 °C) -0.358 ± 0.14. The corresponding values for UUCCAGCAAUAUUACGCGGA are -2.74 ± 0.24 and -3.39 ± 0.33.

Turning to UUCCAGCAAUAUUACGCGUA, the “self-splicing fitness (ln)” value reads like this: (30 °C) -0.454 ± 0.087; (37 °C) 0.0549 ± 0.083. For the sequence UUCCAGCAAUAUUACGCGUC, the “self-splicing fitness (ln)” value by setting is: (30 °C) -1.59 ± 0.16; (37 °C) -0.827 ± 0.18.

For UUCCAGCAAUAUUACGCGUU, the “self-splicing fitness (ln)” value was -2.35 ± 0.1 (30 °C) and -1.6 ± 0.1 (37 °C). Turning to UUCCAGCAAUAUUACGGACC, the “self-splicing fitness (ln)” value (30 °C) was -1.77 ± 0.14 and the “self-splicing fitness (ln)” value (37 °C) was -0.818 ± 0.16.

With UUCCAGCAAUAUUACGGAUA, the “self-splicing fitness (ln)” value is, setting by setting: (30 °C) -0.966 ± 0.092; (37 °C) -0.56 ± 0.098.

In the case of UUCCAGCAAUAUUACGGCGC, the “self-splicing fitness (ln)” value was -2.61 ± 0.14 (30 °C) and -0.177 ± 0.12 (37 °C).

UUCCAGCAAUAUUACGGGUC: the “self-splicing fitness (ln)” value was -2.91 ± 0.17 (30 °C) and -2.12 ± 0.25 (37 °C).

With UUCCAGCAAUAUUACGGGUU, the “self-splicing fitness (ln)” value by setting is: (30 °C) -2.05 ± 0.1; (37 °C) -1.39 ± 0.13. For UUCCAGCAAUAUUACGGUUG, the “self-splicing fitness (ln)” value (30 °C) is -2.43 ± 0.11 and the “self-splicing fitness (ln)” value (37 °C) was -1.75 ± 0.16. For UUCCAGCAAUAUUACGUACU, under “37 °C”, the “self-splicing fitness (ln)” value was -1.82 ± 0.21.

For the sequence UUCCAGCAAUAUUACGUCAU, the “self-splicing fitness (ln)” value was -3.65 ± 0.2 (30 °C) and -2.72 ± 0.2 (37 °C).

Take UUCCAGCAAUAUUACGUGGG: the “self-splicing fitness (ln)” value runs as follows: (30 °C) -3.68 ± 0.18; (37 °C) -2.56 ± 0.16.

UUCCAGCAAUAUUACGUUAC: the “self-splicing fitness (ln)” value is, setting by setting: (30 °C) -3.45 ± 0.43; (37 °C) -2.57 ± 0.25.

Take UUCGAGCAAUAUUACGAACG: the “self-splicing fitness (ln)” value reads like this: (30 °C) -2.89 ± 0.29; (37 °C) -0.783 ± 0.33. Consider UUCGAGCAAUAUUACGACAG, for which the “self-splicing fitness (ln)” value (30 °C) was -2.81 ± 0.19 and the “self-splicing fitness (ln)” value (37 °C) is -1.5 ± 0.13. UUCGAGCAAUAUUACGAUGC: the “self-splicing fitness (ln)” value (30 °C) is -1.44 ± 0.4. Consider UUCGAGCAAUAUUACGCAAG, for which the “self-splicing fitness (ln)” value was -1.98 ± 0.4 (30 °C) and -1.66 ± 0.48 (37 °C).

Take UUCGAGCAAUAUUACGCCGA: the “self-splicing fitness (ln)” value reads like this: (30 °C) -2.65 ± 0.22; (37 °C) -2.66 ± 0.33.

As for UUCGAGCAAUAUUACGCCUU, the “self-splicing fitness (ln)” value by setting is: (30 °C) -3.09 ± 0.26; (37 °C) -1.64 ± 0.26. In the case of UUCGAGCAAUAUUACGCUAG, the “self-splicing fitness (ln)” value is -2.82 ± 0.26 (30 °C) and -2.05 ± 0.42 (37 °C). The corresponding values for UUCGAGCAAUAUUACGGACA are -2.7 ± 0.22 and -1.79 ± 0.17. The corresponding values for UUCGAGCAAUAUUACGGAUA are -2.76 ± 0.28 and -2.08 ± 0.25. The corresponding values for UUCGAGCAAUAUUACGGUAA are -1.85 ± 0.25 and -1.55 ± 0.19.

Regarding UUCGAGCAAUAUUACGGUCU, the “self-splicing fitness (ln)” value (30 °C) was -5 ± 0.38 and the “self-splicing fitness (ln)” value (37 °C) is -5.45 ± 0.36.

Consider UUCGAGCAAUAUUACGUACA, for which the “self-splicing fitness (ln)” value is, setting by setting: (30 °C) -2.27 ± 0.22; (37 °C) -1.81 ± 0.15. With UUCGAGCAAUAUUACGUAGU, the “self-splicing fitness (ln)” value by setting is: (30 °C) -2.91 ± 0.29; (37 °C) -0.98 ± 0.25. On the same counts, the results for UUCGAGCAAUAUUACGUCAG are -3.92 ± 0.43 and 0.987 ± 0.26.

UUCGAGCAAUAUUACGUCAU: the “self-splicing fitness (ln)” value was -2.56 ± 0.21 (30 °C) and -3.46 ± 0.46 (37 °C). The corresponding values for UUCGAGCAAUAUUACGUGUA are -2.65 ± 0.09 and -1.86 ± 0.095. The corresponding values for UUCUAGCAAUAUUACGACCU are -0.905 ± 0.42 and -2.63 ± 0.44. On the same counts, the results for UUCUAGCAAUAUUACGACGG are -1.31 ± 0.1 and -1.77 ± 0.15. Regarding UUCUAGCAAUAUUACGACUU, the “self-splicing fitness (ln)” value is -1.77 ± 0.24 (30 °C) and -1.59 ± 0.19 (37 °C). Take UUCUAGCAAUAUUACGAUGU: the “self-splicing fitness (ln)” value is -3.53 ± 0.42 (30 °C) and -1.66 ± 0.2 (37 °C).

For the sequence UUCUAGCAAUAUUACGCAUC, the “self-splicing fitness (ln)” value is -2.33 ± 0.42 (30 °C) and -0.769 ± 0.29 (37 °C). Regarding UUCUAGCAAUAUUACGCAUG, the “self-splicing fitness (ln)” value reads like this: (30 °C) -3.42 ± 0.16; (37 °C) -2.01 ± 0.18. On the same counts, the results for UUCUAGCAAUAUUACGCCGU are -2.06 ± 0.46 and -0.835 ± 0.34. The corresponding values for UUCUAGCAAUAUUACGCCUA are -1.94 ± 0.29 and -0.0729 ± 0.19. The corresponding values for UUCUAGCAAUAUUACGCGCA are -0.451 ± 0.088 and -0.191 ± 0.097. For UUCUAGCAAUAUUACGCGUG, the “self-splicing fitness (ln)” value is -2.22 ± 0.12 (30 °C) and -0.708 ± 0.1 (37 °C).

Regarding UUCUAGCAAUAUUACGCUAG, the “self-splicing fitness (ln)” value is -3.41 ± 0.23 (30 °C) and -2.42 ± 0.41 (37 °C). The corresponding values for UUCUAGCAAUAUUACGGCAG are 0.185 ± 0.42 and -0.821 ± 0.39. On the same counts, the results for UUCUAGCAAUAUUACGGCGG are -2.93 ± 0.16 and -1.28 ± 0.13. As to UUCUAGCAAUAUUACGUACC, the “self-splicing fitness (ln)” value (37 °C) was -0.136 ± 0.48. Regarding UUCUAGCAAUAUUACGUAGG, the “self-splicing fitness (ln)” value by setting is: (30 °C) -2.25 ± 0.24; (37 °C) -0.645 ± 0.31.

Consider UUCUAGCAAUAUUACGUCAG, for which the “self-splicing fitness (ln)” value (30 °C) was -3.16 ± 0.37 and the “self-splicing fitness (ln)” value (37 °C) is -1.75 ± 0.26. The corresponding values for UUCUAGCAAUAUUACGUCCU are -1.87 ± 0.38 and -2.91 ± 0.36. Turning to UUCUAGCAAUAUUACGUCUU, the “self-splicing fitness (ln)” value was -3.03 ± 0.29 (30 °C) and -2.26 ± 0.23 (37 °C). The corresponding values for UUGAAGCAAUAUUACGACGC are -0.722 ± 0.11 and 0.156 ± 0.14.

Take UUGAAGCAAUAUUACGACUA: the “self-splicing fitness (ln)” value runs as follows: (30 °C) 0.321 ± 0.098; (37 °C) 0.141 ± 0.11. On the same counts, the results for UUGAAGCAAUAUUACGAUAC are -2.62 ± 0.2 and -2.62 ± 0.26. On the same counts, the results for UUGAAGCAAUAUUACGAUAG are 0.155 ± 0.071 and 0.398 ± 0.095.

For UUGAAGCAAUAUUACGCCAA, the “self-splicing fitness (ln)” value was -0.371 ± 0.094 (30 °C) and -0.324 ± 0.11 (37 °C). On the same counts, the results for UUGAAGCAAUAUUACGCCCU are -0.0294 ± 0.13 and 0.698 ± 0.16. For the sequence UUGAAGCAAUAUUACGCGAA, the “self-splicing fitness (ln)” value reads like this: (30 °C) -0.789 ± 0.08; (37 °C) -0.585 ± 0.093. The corresponding values for UUGAAGCAAUAUUACGCGCA are 0.548 ± 0.12 and 0.381 ± 0.12.

In the case of UUGAAGCAAUAUUACGCGGG, the “self-splicing fitness (ln)” value (30 °C) was -1.95 ± 0.1 and the “self-splicing fitness (ln)” value (37 °C) was -0.668 ± 0.12.

Take UUGAAGCAAUAUUACGCGUU: the “self-splicing fitness (ln)” value runs as follows: (30 °C) -3.35 ± 0.15; (37 °C) -0.906 ± 0.12.

Take UUGAAGCAAUAUUACGCUAG: the “self-splicing fitness (ln)” value (30 °C) is -0.524 ± 0.19 and the “self-splicing fitness (ln)” value (37 °C) was -0.328 ± 0.17.

As for UUGAAGCAAUAUUACGGCGC, the “self-splicing fitness (ln)” value runs as follows: (30 °C) -2.04 ± 0.17; (37 °C) -0.68 ± 0.19.

As for UUGAAGCAAUAUUACGGCUC, the “self-splicing fitness (ln)” value reads like this: (30 °C) -3.8 ± 0.25; (37 °C) -1.42 ± 0.19.
